Assay results taken from US20230176076.

Tested on: T1, JUL1 (JULGI) (Arabidopsis thaliana)
T1 sequence: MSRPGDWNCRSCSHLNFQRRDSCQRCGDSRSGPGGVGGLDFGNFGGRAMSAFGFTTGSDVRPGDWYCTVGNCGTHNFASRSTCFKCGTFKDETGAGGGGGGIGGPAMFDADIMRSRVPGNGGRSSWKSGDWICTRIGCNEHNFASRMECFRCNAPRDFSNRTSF
Test: EMSA
Conditions: method inferred from context

SMXL5 5'UTR G-quadruplex probe
Kd (with potassium): 130 nM
Kd (without potassium): 230 nM
